assay: yeast display, Sf9 membrane polyspecificity reagent, FACS + sequencing; frameworks hold sequencing errors
In short: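 In a synthetic yeast display library (Saccharomyces cerevisiae BJ5465), nanobody expression was induced with galactose for 36–48 hours. FACS gates were set low and high (top ~1%) using anti-HA fluorescence for expression and streptavidin fluorescence for binding of the Sf9 membrane reagent. Each polyreactivity label is drawn from the gate of origin.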

| Sequence | polyreactivity (PSR sort gate) |
| --- | --- |
| QVQLVESGGGLVQAGGSLRLSCAASGIFYVYAMGWYRQAPGKERELVAAISSDGSTYYADSVKGRFTISRDNAKNTVYLQMNSLKPEDTAVYYCAAVWYWTQDYDYWGQGTQVTVSS | low polyreactivity |
| QVQLVESGGGLVQAGGSLRLSCAASGIIFAFYAMGWYRQAPGKERELVATISKSGGRTYYADSVKGRFTISRDNAKNTVYLQMNSLKPEDTAVYYCAARIQYAFGADYYWGQGTQVTVSS | low polyreactivity |
| QVQLVESGGGLVQAGGSLRLSCAASGIIFAHNAMGWYRQAPGKERELVAAISKRGGSTYYADSVKGRFTISLDNAKNTVYLQMNSLKPEDTAVYYCAAASFTWVSRGYDYWGQGTQVTVAS | high polyreactivity |
| QVQLVESGGGLVQAGGSLRLSCAASGIIFALYAMGWYRQAPGKERELVATITYSGGSTYYADSVKGRFTISRDNAKNTVYLQMNSLKPEDTAVYYCAADYYILRWRQTNDYWGQGTQVTVSS | low polyreactivity |
| QVQLVESGGGLVQAGGSLRLSCAASGIIFARNGMGWYRPAPGKERELVAAISSGGRKYYADSVKGRFTISRDNAKNTVYLQMNSLKPEDTAVYYCNALGWYLRGDYWGQGTQVTVSS | high polyreactivity |
| QVQLVESGGGLVQAGGSLRLSCAASGIIFARNTMGWYRQAPGKERELVAAISTRGTTSYYADSVKGRFTISRDNAKYTVYLQMNSLKPEDTAVYYCAAVRVHTDRYNYWGQGTQVTVSS | high polyreactivity |
| QVQLVESGGGLVQAGGSLRLSCAASGIIFARYAMGWYRQAPGKERELVAAINWSGGDTYYADSVKGRFTISRDNAKNTVYLEMNSLIPEDTAVYYCSKVISYLVVLPRTERYEGDYWGQGTQVSVSS | low polyreactivity |
| QVQLVESGGGLVQAGGSLRLSCAASGIIFASNAMGWYRQTPGKERELVAAISGSGGRTYYADSVKGRFTISRDNAKNTVYLQMNSLKPDDTAVYYGAAARANNYDYWGQGTQVTVSS | high polyreactivity |
| QVQLVESGGGLVQAGGSLRLSCAASGIIFASNARGWYIQAPGKERELVASINRRGSSTYYADSVKGRFTISRDNAKNTVYLQMNSLKPEDTAVYYCAARAFNSGLGYTRYDYWGQGTQVTVSS | high polyreactivity |
| QVQLVESGGGLVQAGGSLRLSCAASGIIFASNGMGWYRQAPGKERELVAAISSGGSTNYADSVKGLFTISRDHAKNTVYLQMNSLKPEDTAVYYCAADRWDRDYDYWGQGTQVTVSS | low polyreactivity |
| QVQLVESGGGLVQAGGSLRLSCAASGIIFASYAMGWYRPAPGKERELVATISRTGGSTRYADSVKGRFTISRDNAKNTVYLQMNSLKPEDTAVYYCAARNPAYDRRYGYWGQGTQVTVSS | high polyreactivity |
| QVQLVESGGGLVQAGGSLRLSCAASGIIFATNSMGWYRQAPGKERELVAAITSDSTNYADSVKGRFTISRDNAKNTVYLQMNSLKAEDTAVYYCAADLITDYEESDYWGQGTQVTVSS | low polyreactivity |
| QVQLVESGGGLVQAGGSLRLSCAASGIIFAWYAMGWYRQAPGKERELVAAISYSGGTTYYADSVKGRFTISRDIAKNTVYLQMNSLKPEDTEVYYCAGRLHLFFSYDYWGQGTLVTVSS | low polyreactivity |
| QVQLVESGGGLVQAGGSLRLSCAASGIIFAWYAMGWYRQAPGKERELVAAITSRGGSRTFYADSVKGRFTISRDNAKNTVYLQMNSLKPEDTAVYYCAVVTRAHPEDYWGQGTQVTVSS | high polyreactivity |
| QVQLVESGGGLVQAGGSLRLSCAASGIIFAYNAMGWYRQAPGKERELVAAISSGGRTNYADSVKGRFTISRDNAKNTVYLQMNSLKPEDTAVYYCAARPRYYWLGLKIYGYDYWGHGTQVTVSS | high polyreactivity |
| QVQLVESGGGLVQAGGSLRLSCAASGIIFAYNAMGWYRQAPVKERELVAAISVIGGTTYYADSVKGRFTISRDNAKITVYLQMNSLKPEDTAVYYCAVDSVQYGGGYERLHDLYYWGQGTQVTVSS | low polyreactivity |

| Sequence | polyreactivity (PSR sort gate) |
| --- | --- |
| QVQLVESGGGLVQAGGSLRLSCAASGIIFAYYAMGWYRQAPGKERELVAAIDYSGASTYYADSVKGRFTISRDNAKNTVYLQMNSLKPEDTAVYYCNADDFGYASYEYWGQGTQVTVSS | low polyreactivity |
| QVQLVESGGGLVQAGGSLRLSCAASGIIFAYYAMGWYRQAPGKERELVAAISDNGGRTFYADSVKGRFTISRDNAKNTVYLQMNSLKPEDTAVYYCAAVVYSEYYYWGQGTQVTVSS | low polyreactivity |
| QVQLVESGGGLVQAGGSLRLSCAASGIIFAYYAMGWYRQAPGKERELVGTNYADSVKGRFTISRDNAKNTVFLQMNSLKPEDTAVYYCAVQGYGEYDYWGQGTQVTVSS | low polyreactivity |
| QVQLVESGGGLVQAGGSLRLSCAASGIIFDDNTMGWYRQAPGKERELVAAISSSGGSTYYADSVKGRFTISRDNAKNTVYLQMNSLKPEDTAVYYCAAAVYYTYPYIVYRNYPEFDYWGQGTQVTVSS | low polyreactivity |
| QVQLVESGGGLVQAGGSLRLSCAASGIIFDDYAMGWYRQAPGKERELVAAINSNGGTTYYADSVKGRFTISRDNAKNTVYLHMNSLKPEDTAVYYCAKAYPGTYREYDYWGQGTQVTVSS | high polyreactivity |
| QVQLVESGGGLVQAGGSLRLSCAASGIIFDFYAMGGYRQAPGKEREFVAAINSGSGSTYYADSVKGRFTISRDNAKNTVYLQMNSLKPVDTAVYYCAADGLSATLTWYSYDYWGQGTQVTVSS | low polyreactivity |
| QVQLVESGGGLVQAGGSLRLSCAASGIIFDFYAMGWYRQAPGKERELVAAINSGSGSTYYADSVKGRFTISRDNAKNTVYLQMNSLKPEDTAVYYCAADGLSATLTWYSYDYWGQGTQVTVSS | low polyreactivity |
| QVQLVESGGGLVQAGGSLRLSCAASGIIFDGNSMGWYRQAPGKEREFVAANSRNGGSTSYADSVKGRFTISRHNAKNTVYLQMHSLKPEDTAVYYCAADVETFWGCRYEYWGQGTQVTVSS | low polyreactivity |
| QVQLVESGGGLVQAGGSLRLSCAASGIIFDGYAMGWYRQAPGKEREFVAAITSGGGSTSYADSVKGRFTISRDNAKNTVYLQMNSLKPEDTAVYYCAARSNRFYVRQRYAYWGQGTQLTVSS | high polyreactivity |
| QVQLVESGGGLVQAGGSLRLSCAASGIIFDINAMGWYRQAPGKERELVAAITTSVDSTYYADSVKGRFTISRDNAKNTVYLQMNSLKPEDTAVYYCAVAFVQFTQYYYWGQGSQVTVSS | low polyreactivity |
| QVQLVESGGGLVQAGGSLRLSCAASGIIFDRNTMGWYRQAPGKEREYVAAISRNGGSTSYADSVKGRFTISRDNAKNTVYLQMNSLKPEDTAVYDCAADVETFWGWRYEYWGQGTQVTVSS | low polyreactivity |
| QVQLVESGGGLVQAGGSLRLSCAASGIIFDRYAMGWYRQAPGKERELVAAISWSGGRTYYADSVKGRFTISRDNAKNTVYLQMNSLKPEDTAVYYCAAKPSVDLDYWGQGTQVTVSS | high polyreactivity |
| QVQLVESGGGLVQAGGSLRLSCAASGIIFDRYAMGWYRQAPGKERELVAAITRSGGRTYYADSVKGRFTISRDNAKNTVYLQMNSLKPEDTAVYYCNAYRSALYPPEYDYWGQGTQVTVSS | high polyreactivity |
| QVQLVESGGGLVQAGGSLRLSCAASGIIFDTNAIGWYSQAPGKERELVATITQRGGTTYYADSVKGRFTISRDNAKNTVYLQMNSLKPEDTAVYYCNAGPVRLPYDSWGQGSQVTVSS | low polyreactivity |
| QVQLVESGGGLVQAGGSLRLSCAASGIIFDTYVMGWYRQAPGKERELVAAITRSGGRTRYADSVKGRFTISRDNAKNTVYLQMNSLKPEDTAVYYCAARIPDRQDGYGYWGQGTQVTVSS | high polyreactivity |
| QVQLVESGGGLVQAGGSLRLSCAASGIIFDWYAMGWYRQAPGTERELVAAISDSGDTTYYADSVKGRFTISRDNAKNTVYLQMNSLNPEDTAVYYCAARWEYVGYRRRYYRFDYWGQGTQVTVSS | high polyreactivity |

— the nanobody polyreactivity screen of Harvey et al. (2022)
